± gives the uncertainty stated by the source.
Assay: protein stability index of a GFP-peptide fusion (yeast GPS) (PSI 1-4); higher = more stable; sorted into four equal gates, so the index is relative within each strain
How it was run: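 Plasmids isolated from each sorting gate were PCR-amplified and Illumina-sequenced, and barcodes assigned the reads to strains. The gates, four of equal size, were set by GFP/Cherry fluorescence ratio on mid-log cultures in leucine-free medium. These cultures were yeast carrying a pooled library of tiled 17-residue yeast protein peptides fused downstream of GFP on a plasmid that also expresses Cherry. The protein stability index is the sum of every gate's read frequency times its gate number.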

Row | Sequence | protein stability index (doa10∆) | protein stability index (pdr5∆) | protein stability index (san1∆) | protein stability index (ubr1∆)
1 | PKIETNVYVGMTDMQIQ [ISW2] | 2.96 ± 0.091 | 2.99 ± 0.091 | 3.04 ± 0.069 | 3.29 ± 0.11
2 | NLPKEGDIVLTRVTRLS [CSL4] | 2.58 ± 0.13 | – | 2.48 ± 0.26 | –
3 | LRDRNFSATGNFGFGID [RPL11A] | 3.23 ± 0.069 | 3.28 ± 0.072 | 2.93 ± 0.1 | 3.25 ± 0.053
4 | IMLLQLELGSCFSQENI [SIN4] | 1.64 ± 0.046 | 1.87 ± 0.047 | 2.52 ± 0.067 | 2.27 ± 0.062
5 | GVPNYLVQLEPHLFVNG [SSN2] | 1.96 ± 0.069 | 1.97 ± 0.063 | 1.94 ± 0.084 | 1.96 ± 0.12
6 | PLVQADLYEQIGIDPPR [RPT3] | 2.48 ± 0.074 | 2.83 ± 0.1 | 2.63 ± 0.066 | 2.83 ± 0.081
7 | DLTNNPQDDDSQSKMMS [MTR3] | 3.17 ± 0.084 | 3.39 ± 0.073 | 3.09 ± 0.074 | 3.31 ± 0.055
8 | RNVVEDINQAKDFIENV [BRN1] | 3.25 ± 0.13 | 3.31 ± 0.097 | 3.24 ± 0.078 | 3.25 ± 0.072
9 | HLLPRNEWIKAQEDVPY [QCR7] | 2.31 ± 0.072 | 1.68 ± 0.086 | 2.17 ± 0.089 | 1.88 ± 0.046
10 | LRYVKQIEGPFLIIVPK [ISW2] | 2.15 ± 0.081 | 2.3 ± 0.059 | 2.29 ± 0.065 | 2.34 ± 0.045
11 | ILRKPGKDCKLQNLQRI [RRI2] | 3.12 ± 0.094 | 3.47 ± 0.14 | 3.14 ± 0.096 | 3.07 ± 0.13
12 | HFTSPIRRYCDVVAHRQ [DIS3] | 2.04 ± 0.082 | 2.21 ± 0.066 | 2.06 ± 0.1 | 1.84 ± 0.073
13 | PAGMNETPKSNNSLSYH [ITC1] | 2.08 ± 0.14 | 3.22 ± 0.12 | 2.56 ± 0.14 | 3 ± 0.092
14 | LIVDVKQQGVGLPTDAY [RPN8] | 2.07 ± 0.25 | 2.77 ± 0.25 | 1.28 ± 0.26 | –
15 | AGVSHGTLGEIFIRCNN [SMX3] | 3.57 ± 0.14 | 3.37 ± 0.096 | 2.91 ± 0.094 | 3.29 ± 0.08
16 | AAVLSNLQGDLQAIQEK [ITC1] | – | – | 3.31 ± 0.16 | –
17 | FNPYGDNGGTILGIAGE [PRE7] | 3.37 ± 0.1 | 3.24 ± 0.11 | 3.24 ± 0.16 | 3.28 ± 0.064
18 | LMLEDTDGDSILYYDVL [BRR2] | 2.85 ± 0.074 | 3.17 ± 0.092 | 3.12 ± 0.067 | 3.1 ± 0.058
19 | STDNEAITISNSIDINY [SMC1] | 2.62 ± 0.053 | 2.93 ± 0.057 | 2.67 ± 0.045 | 2.88 ± 0.039
20 | IQPKNSDDQQEAVELVI [YML103C/NUP188] | 2.85 ± 0.19 | – | 3.4 ± 0.13 | 3.34 ± 0.12
21 | QIVQVLKQPPFQITLSS [SSN8] | 2.12 ± 0.062 | 2.06 ± 0.074 | 1.86 ± 0.094 | 2.54 ± 0.081
22 | PKSLNSNININVNNNNI [SWI1] | 3.03 ± 0.14 | 2.63 ± 0.12 | 3.04 ± 0.066 | 2.81 ± 0.098
23 | FNVEYFAKEKLTKKEKK [RPL6A] | 2.23 ± 0.084 | 1.68 ± 0.066 | 1.44 ± 0.12 | 1.9 ± 0.073
24 | QELGFCELLKLTNEDPP [SSN2] | 3 ± 0.12 | 3.12 ± 0.069 | 2.83 ± 0.1 | 3.02 ± 0.066
25 | LDLANSGDESNVISSKD [YDL116W/NUP84] | 3.31 ± 0.09 | 3.31 ± 0.067 | 3.25 ± 0.051 | 3.26 ± 0.063
26 | KYHKEQFIKSNFEKILL [SRB8] | 2.21 ± 0.085 | 2.32 ± 0.047 | 1.95 ± 0.075 | 2.37 ± 0.057
27 | QALDAVRMRLAQLTHSL [MED8] | 1.58 ± 0.04 | 1.58 ± 0.047 | 1.54 ± 0.065 | 1.5 ± 0.035
28 | FRETTHSKRELDSGDDQ [BRR2] | 3.31 ± 0.12 | 3.02 ± 0.12 | 2.51 ± 0.088 | 2.78 ± 0.16

Row | Sequence | protein stability index (doa10∆) | protein stability index (pdr5∆) | protein stability index (san1∆) | protein stability index (ubr1∆)
29 | MAESTTLETIEIHPITF [RRP43] | 3.04 ± 0.073 | 2.58 ± 0.047 | 3.06 ± 0.044 | 2.68 ± 0.04
30 | VSVIAPESQGQHEQQKQ [YMR153W/NUP53] | 2.92 ± 0.085 | 3.15 ± 0.097 | 2.91 ± 0.068 | 2.94 ± 0.068
31 | FILIPLYKIFSYALSME [SNU114] | 1.65 ± 0.042 | 1.45 ± 0.037 | 1.46 ± 0.075 | 1.68 ± 0.031
32 | KYFTESDIPVSENVFEG [SSN3] | 3.06 ± 0.11 | 3.25 ± 0.098 | 3.1 ± 0.094 | 3.06 ± 0.073
33 | EAGVTDVKVSISHDDLQ [FAS2] | 2.77 ± 0.049 | 2.72 ± 0.038 | 2.74 ± 0.061 | 2.85 ± 0.047
34 | LQDWQREDEFGSIPSLT [YDL088C/ASM4] | 3.22 ± 0.073 | 3.19 ± 0.066 | 3.11 ± 0.049 | 3.53 ± 0.082
35 | EDKVFASKGRTKIDMPI [BRN1] | – | – | 2.59 ± 0.26 | –
36 | TGPKQQEITTNLENHFK [SCL1] | 2.94 ± 0.044 | 2.97 ± 0.037 | 3.04 ± 0.032 | 2.9 ± 0.03
37 | RLPTFLKHKSICSCVNR [RPP1] | 1.84 ± 0.086 | 2.24 ± 0.11 | 1.98 ± 0.13 | 2.83 ± 0.08
38 | MTKTITVAHIQYDFKAV [RPN14] | 2.42 ± 0.083 | 3.09 ± 0.095 | 2.4 ± 0.063 | 2.71 ± 0.043
39 | FNGADIRNCATEAGFFA [RPT4] | 3.32 ± 0.065 | 3.38 ± 0.079 | 3.3 ± 0.057 | 3.22 ± 0.048
40 | IIDGPKALILAPTRELV [PRP28] | 1.59 ± 0.062 | 2.32 ± 0.053 | 1.89 ± 0.1 | 1.68 ± 0.052
41 | VAIGLNGKIWVKCEELS [RRP40] | 1.58 ± 0.2 | 2.25 ± 0.24 | 2.94 ± 0.16 | 1.73 ± 0.1
42 | VNESRNSDDIIDVDMDA [SRB5] | 2.27 ± 0.065 | 2.2 ± 0.053 | 2.57 ± 0.078 | 2.59 ± 0.052
43 | KEEGLQQFNLHEILSEP [MED1] | 2.97 ± 0.15 | 3.21 ± 0.15 | 3.12 ± 0.12 | 2.62 ± 0.12
44 | SAAKYKDMKLLRYYKNI [NUT1] | 1.83 ± 0.059 | 2.2 ± 0.06 | 2.23 ± 0.079 | 1.99 ± 0.04
45 | KNKSGKIFVETKFSKLI [FAS1] | 2.33 ± 0.072 | 2.69 ± 0.076 | 2.3 ± 0.16 | 1.84 ± 0.077
46 | IVKNAEQHNLVKKGPVR [RPS20] | 2.84 ± 0.058 | 3.13 ± 0.066 | 2.9 ± 0.072 | 2.95 ± 0.078
47 | VTTFVFTGQGSQEQGMG [FAS1] | 3.46 ± 0.15 | 3.49 ± 0.13 | 3.48 ± 0.14 | 3.68 ± 0.18
48 | FNKTTNIDINNEDENIQ [YJL041W/NSP1] | 3.19 ± 0.074 | 3.31 ± 0.082 | 3.09 ± 0.056 | 3.2 ± 0.059
49 | NKPIKRMLSSILDINVS [SWP82] | 2.52 ± 0.046 | 2.6 ± 0.041 | 2.48 ± 0.053 | 2.31 ± 0.027
50 | SLKNVTEKNREIYKQLN [YIL149C/MLP2] | 3.31 ± 0.097 | 2.76 ± 0.11 | 3.18 ± 0.056 | 2.99 ± 0.05
51 | RQFLHELRRPGVDNLRR [RPO31] | 1.27 ± 0.078 | 1.37 ± 0.097 | 1.25 ± 0.23 | 1.64 ± 0.093
52 | NFQDLSYLSETLISRIS [YML103C/NUP188] | 2.38 ± 0.082 | 2.51 ± 0.079 | 2.04 ± 0.093 | 2.32 ± 0.074
53 | LRGCKFLQSVDITGIRD [GRR1] | 1.72 ± 0.034 | 2.03 ± 0.046 | 1.89 ± 0.053 | 1.83 ± 0.04
54 | VEEIKLQKEKELHKEGT [SMC2] | – | 3.03 ± 0.12 | 2.81 ± 0.095 | 2.97 ± 0.096
55 | STKKDTVQLTFLIDVLK [YCG1] | 2.38 ± 0.096 | 2.72 ± 0.068 | 2.47 ± 0.078 | 2.81 ± 0.068
